Data on 43 variants can be found in the Human Domainome abundance scans (Beltran et al. 2025).

± gives the uncertainty stated by the source.

B1: Nucleolar transcription factor 1, residues 408 to 469; numbered along this chain, P17480 (parent)
chain: KRPVSAMFIFSEEKRRQLQEERPELSESELTRLLARMWNDLSEKKKAKYKAREAALKAQSER

In the series the parent is B1. Briefly: abundance fitness (aPCA) (normalised: wild type 0, dead -1); higher = more abundant; growth selection in yeast, the domain comes from the species named. As to conditions: Homo sapiens.
KRPVSAMTIFSEEKRRQLQEERPELSESELTRLLARMWNDLSEKKKAKYKAREAALKAQSER: the abundance fitness was -0.066 ± 0.093.

Turning to KRPVSAMPIFSEEKRRQLQEERPELSESELTRLLARMWNDLSEKKKAKYKAREAALKAQSER, the abundance fitness was -0.235 ± 0.061.

As to KRPVSAMMIFSEEKRRQLQEERPELSESELTRLLARMWNDLSEKKKAKYKAREAALKAQSER, the abundance fitness is -0.003 ± 0.053.

For the variant KRPVSAMWIFSEEKRRQLQEERPELSESELTRLLARMWNDLSEKKKAKYKAREAALKAQSER, the abundance fitness is -0.03 ± 0.059.

As to KRPVSAMFIFSEEKRRQLQEERPELSESELTRLLARMWNDLSEKKKQKYKAREAALKAQSER, the abundance fitness was -0.005 ± 0.054.

As to KRPVSAMFIFSEEKRRQLQEERPELSESELTRLLARMWNDLSEKKKSKYKAREAALKAQSER, the abundance fitness was -0.046 ± 0.063.

Consider KRPVSAMFIFSEEKRRQLQEERPELSESELTRLLARMWNDLSEKCKAKYKAREAALKAQSER, for which the abundance fitness is -0.002 ± 0.062.

Consider KRPVSAMFIFSEEKRRQLQEERPELSESELTRLLARMWNDLSEKLKAKYKAREAALKAQSER, for which the abundance fitness is -0.131 ± 0.054.

As for KRPVSAMFIFSEEKRRQLQEQRPELSESELTRLLARMWNDLSEKKKAKYKAREAALKAQSER, the abundance fitness was -0.006 ± 0.076.

Regarding KRPVSAMFIFSEEKRRQLQEERPELSESELTRLLARMWNDLSEKKKAKYKAREAHLKAQSER, the abundance fitness stood at 0.003 ± 0.17.

As to KRPVSAMFIFSEEKRRQLQEERPELSEQELTRLLARMWNDLSEKKKAKYKAREAALKAQSER, the abundance fitness was -0.08 ± 0.071.

KRPVSAMFIFSEEKRRQLQEERPELSESELTRLLARMWNDLSEKKKAKYKAREAALVAQSER: the abundance fitness is -0.085 ± 0.042.

Turning to KRPVSAMFIFSEEKRRQLQEERPELSESELTRLLARMWNDLSEKKKAKYKAREAALIAQSER, the abundance fitness is -0.045 ± 0.069.

For the variant KRPVSAMFIFSEEKRRQLQEERPELSNSELTRLLARMWNDLSEKKKAKYKAREAALKAQSER, the abundance fitness was -0.33 ± 0.19.

Turning to KRPVSAMFIFSEEKRRQLQEERPELSESELTRLLARFWNDLSEKKKAKYKAREAALKAQSER, the abundance fitness was -0.239 ± 0.15.

KRPVSAMFIFSEEKRRQLQEERPELSESELTRLLARRWNDLSEKKKAKYKAREAALKAQSER: the abundance fitness is -0.147 ± 0.041.

In the case of KRPVSAMFIFSEEKRRQLQEERPELSESELTRLLARVWNDLSEKKKAKYKAREAALKAQSER, the abundance fitness is -0.382 ± 0.044.

As to KRPVSAMFIFSEEKRRQLQEERPELSESELTRLLAAMWNDLSEKKKAKYKAREAALKAQSER, the abundance fitness was -0.006 ± 0.063.

Consider KRPVSAMFIFSEEKRWQLQEERPELSESELTRLLARMWNDLSEKKKAKYKAREAALKAQSER, for which the abundance fitness is -0.106 ± 0.054.

For KRPVSAMFIFSEEKRHQLQEERPELSESELTRLLARMWNDLSEKKKAKYKAREAALKAQSER, the abundance fitness was -0.071 ± 0.07.

For the variant KRPVSAMFIFSEEKRRQLQEERPELSESELTRLLARMWFDLSEKKKAKYKAREAALKAQSER, the abundance fitness is -0.061 ± 0.1.

In the case of KRPVSAMFIFSEEKRRQLQEERPELSESELTRLLARMWTDLSEKKKAKYKAREAALKAQSER, the abundance fitness is -0.038 ± 0.065.

As to KRPVSAMFIFSEEKRRQLQEERPELSESELTRLLARMWNDLSEKKKAKYKAREAALKAQSEY, the abundance fitness was found to be 0.016 ± 0.12.

For the variant KRPVSAMFIFSEEKRRQLQEERPELSESELTRLLARMWNDLSEKKKAKYKAREAALKAQSEG, the abundance fitness was 0.055 ± 0.033.

Take KRPVSAMFIFSEEKRRQLQEERPELSESELTRLLARMWNDLSEKKKAKYKAREAALKAQSEW: the abundance fitness was 0.014 ± 0.11.

As to KRPVSAMFIFSEEKRRQLQEERPELSESELTRLLARMWNDLSEKKKAKYKAREAALKAQSET, the abundance fitness is -0.051 ± 0.09.

KRPVSAMFIISEEKRRQLQEERPELSESELTRLLARMWNDLSEKKKAKYKAREAALKAQSER: the abundance fitness was -0.948 ± 0.11.

For the variant KRPVSAMFIKSEEKRRQLQEERPELSESELTRLLARMWNDLSEKKKAKYKAREAALKAQSER, the abundance fitness was -0.857 ± 0.1.

For the variant KRPVSAMFIFSEEKRRQLQEERPELSESELTRLLARMWNDLSEKKKAKYKAREAALKWQSER, the abundance fitness is -0.097 ± 0.067.

Turning to KRPVSAMFIFSEEKRRQLQEERPELSESELFRLLARMWNDLSEKKKAKYKAREAALKAQSER, the abundance fitness was -0.308 ± 0.12.

On to KRPVSAMFIFSVEKRRQLQEERPELSESELTRLLARMWNDLSEKKKAKYKAREAALKAQSER, for which the abundance fitness was -0.163 ± 0.052.

Take KRPVSAMFIFSKEKRRQLQEERPELSESELTRLLARMWNDLSEKKKAKYKAREAALKAQSER: the abundance fitness was -0.059 ± 0.065.

On to KRPVSAMFIFSEEKTRQLQEERPELSESELTRLLARMWNDLSEKKKAKYKAREAALKAQSER, for which the abundance fitness was -0.23 ± 0.077.

As to KRPVSAMFIFSEEKFRQLQEERPELSESELTRLLARMWNDLSEKKKAKYKAREAALKAQSER, the abundance fitness was -0.111 ± 0.06.

As for KRPVSAMFIFSEEKHRQLQEERPELSESELTRLLARMWNDLSEKKKAKYKAREAALKAQSER, the abundance fitness is -0.411 ± 0.2.

Regarding KRPVSAMFIFSEEKKRQLQEERPELSESELTRLLARMWNDLSEKKKAKYKAREAALKAQSER, the abundance fitness came out at 0.035 ± 0.078.

On to KRPVSAMFIFSEEKRRQLQEERPELSESELTRLLARMWNDLSEKKKAKYKARECALKAQSER, for which the abundance fitness is -0.051 ± 0.1.

Turning to KRPVSAMFIFSEEKRRQLQEERPELSESELTRLLARMWNDLSEKKKAKYKAREEALKAQSER, the abundance fitness was -0.063 ± 0.088.

KRPVSAMFIFSEEKRRQLQEERPEKSESELTRLLARMWNDLSEKKKAKYKAREAALKAQSER: the abundance fitness is -0.385 ± 0.082.

In the case of KRPVSAMFIFSEEKRRQLQEERPEVSESELTRLLARMWNDLSEKKKAKYKAREAALKAQSER, the abundance fitness is -0.155 ± 0.054.

For KRPVSAMFIFSEEKRRQQQEERPELSESELTRLLARMWNDLSEKKKAKYKAREAALKAQSER, the abundance fitness was -0.531 ± 0.11.

Regarding KRPVSAMFIFSEEKRRQWQEERPELSESELTRLLARMWNDLSEKKKAKYKAREAALKAQSER, the abundance fitness was -0.338 ± 0.047.

For KRPVSAMFIFSEEKRRQDQEERPELSESELTRLLARMWNDLSEKKKAKYKAREAALKAQSER, the abundance fitness is -1.5 ± 0.23.
